Data: the domain aggregation screens of Martell et al. (2025)

Assay: soluble fraction after stress (log2 fold change); higher = more stays soluble; pooled small domains, quantitative proteomics
Details: stress: pH 4
Outline: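 With high-throughput quantitative proteomics, pooled custom libraries of small protein domains were measured after pH 4 stress. Each domain's soluble amount after the stress gives a fold change taken as aggregation propensity. Higher log2 values mean more of the domain stayed soluble.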

Compared with “HMLEKDIGKAITILRKSYQLSISAFSMRTGYSRVHISEVESGKRKATDELISVIRNVFHLDSNWPF”, “HMLELDRTNLLGVFGSKSNPYALIMLSNGEMLKLSIGDQFLGWRVYAIDQTTVHVQNGKNQEILRIP” is lower in “soluble fraction (log2)” value: -0.517 for the first, -0.772 for the second.

Compared with “HMLELLSMEDIQRTRVGDLIATVRQVDRQHALVLDRDPETGKPAVRGIFSLSQISLRLGLNI”, “HMLEPGIAVLKTLMSQYRLGVADLPELGSKSNVSKLLNAVEGKKLTRQHIEALSKRFAVSPALF” is higher in “soluble fraction (log2)” value: -0.733 for the first, 0.114 for the second.

First: HMLEPGQKVKSVVVDISGDLIYIDLGGKTEGVVELKEFYDEAGEYHVKPGDEIEVFFVSVQNGLKRFTT
Second: HMLEQISDPEVLSKLADEVLSQQEKMVMDYRKGKTAAFQGLMGQMMKKTKGKGNPAKIQEILAQKL
The “soluble fraction (log2)” value of the first is lower: -0.403 for the first, -0.192 for the second.

First: HMLEQLTPRELKVLQALAQGRQNKEIAAQLVISERTVKFHVSAILSKLNVGNRTEAVTVAAQRGLISL
Second: HMLEQSYYEKTDEIIELHGAKASSLIPVMQDVQAEYRYLPGELLSYIADKLGIPLAKAYSVATFYENFS
The “soluble fraction (log2)” value of the first is higher: -0.729 for the first, -0.951 for the second.

Compared with “HMLERKFGTSLEIKSLSKFLIENNYKKNAKYLNKLIQVLGTRSENRIIKTFFKQFPEIENIFRNQL”, “HMLETADDAKRFLGAIISEKKAENLLRVYPDIIERIVAGKPVDLSLVKGIKQKTFDKLRQKVISHYSMY” is higher in “soluble fraction (log2)” value: -0.493 for the first, -0.0382 for the second.

Going from “HMLETHRRRQIILSLLRESGMLDVDEVAARLVVSPNTIRNDFNALAAEGLLRRIRGGATLAEP” to “HMLFKNASGTVVSRIQSQVDGQINIRTGSGNAPDYAFVAKPDGAVELYHNGTKQFETGSSGVLLP”, the “soluble fraction (log2)” value falls from -0.171 to -0.527.

Going from “HMLFQQPATMIGKIGVAMSDLRPSGKIKIDDEWYDGQSEGDYILKGQEIIVVQVMNAYLIVRL” to “HMLFRGNGFNTLYDKQLRITQQGEFKDGRLWDGKYYRYSKAGELVRIEIYEQGRYAGNGVITDEDKA”, the “soluble fraction (log2)” value rises from -0.44 to -0.0519.

Compared with “HMLFSDSDLKSLLDKDISYVIEMYKAASKEQKRIISDMVAQKVMEKKYIDANILIQLGELTGINYMDL”, “HMLFSEKLKQAMQDLHLNQIQVVGLTGKSKGSISQYISGKQVPSEATQRDIAISLGLEENYFSKK” is higher in “soluble fraction (log2)” value: -1.32 for the first, 0.216 for the second.

Compared with “HMLFYSDLVRLISFAEATLGKNEFETWYMSHHQGMKYTEIAIALGISVRTVEDRIARTKNHFRKI”, “HMLGAGFDSDLTARENIFLNGALLGHSRAVMRGYYDDIVNFAELHDFMDVPVKNFSSGMTSRLAFSIATIG” is higher in “soluble fraction (log2)” value: -1 for the first, 0.183 for the second.

“HMLGARIAALRRQAGMNQGELAKKLGISPSTVGMYEQGRREPSAEMLVRLAEAFSVSTDFLLT” and “HMLGERIRRLRKEMGMSVTELARRVKTSPSYISEIEKGEKTPSLNLLVRIASELRTGIDYLTGL” are within 0.2 log units of each other in “soluble fraction (log2)” value: -0.0832 for the first, -0.00698 for the second.

Going from “HMLGIGANVQKIAQERKISLKELSRRAGIPYTTIYNMVKRDSSRVSPENLQKLADALGVEIGKLYG” to “HMLGSQQAYTDALRLTGLPVDIEVIESDRLPFLIPMRYSLDQHLIEVNVRYPDTRAIRVQQMVEELFHA”, the “soluble fraction (log2)” value falls from ≥ 0.43 to -0.415.

First: HMLGVKKFGGEAVIAGNIILRQRGTKWITGSNVGIGKDHTLFAKIEGYVVFERMRGRDGQQQISIYP
Second: HMLGYQALASAFRSKVEAGIWPIGEAIPSEARLSKEYGVAVGTIRQAIAELAEEGILIKRHGKSTMVSSG
The “soluble fraction (log2)” value of the first is lower: -0.192 for the first, 0.101 for the second.

Compared with “HMLHEFSGVVVSILADTGPSTLKQLHRSLISSDVKMDEKELMQILDEALSSGSVTSHRKGRYLYYSANK”, “HMLHIKKGDTVIVNAGESKGQQGKVLEVLVGKERAIVEGVNMVSKHTKPNAKNPQGGIVKKEAPIHISNLQ” is higher in “soluble fraction (log2)” value: -0.399 for the first, 0.0699 for the second.

Compared with “HMLHPLLWAVDEPTPVTVRTRPEYVPDVVRWLMQPESQREHDGVVDLRYTVTHRAAFRSRIYVLGTRVTIP”, “HMLIADADSLRKQIETVLANAPNEVAAYRGGKETLMGWFVGQIMRATGGKADPKLTREILAELLQ” is lower in “soluble fraction (log2)” value: 0.17 for the first, -0.126 for the second.

First: HMLIADSDALRSQIESILNGNPNEVASFRAGKESLMGWFVGQVMRSTGGKADPKRTRELLQELLTK
Second: HMLIDSEILKKTNKITIFLIYAFFSEYLINKEKKKILIGEYIKLSKDFLTIEEVKYFNHLLDDISK
The “soluble fraction (log2)” value of the first is higher: -0.0841 for the first, -0.304 for the second.

First: HMLIDSNNYFFYKVKPKEGFYSLQKKLGVNRSEIEKHNPSLINEVLKEGMILKIPKYLLNFDLN
Second: HMLILTWNYPYEYPMMMRSFLQEIGISRTFLAHIKSNGELLINGRHEIVLKTLQPGDVLTMVIPPSG
The “soluble fraction (log2)” value of the first is higher: -0.214 for the first, -0.78 for the second.

Compared with “HMLINLGPRIRKERRSKGISQSDFSKNLGISASYLNLLENGRRTLTVPLLIKIGNELNLSLKDL”, “HMLISAESVKRRLEMIRHLILLGDYEDVTAQVIKLNPAANEYKLTPIIEELNGGKYQEALEKINSYLSKF” is lower in “soluble fraction (log2)” value: 0.113 for the first, -0.127 for the second.

“HMLISKNLLGFTIKNTSGVTFGTLKDIMWLPSNDVYVIDNNGKEYLIPVISEIVKSINYDKGSITIFP” and “HMLKASEVLPYVFTDKFFIDDLNLKQDQILGFLEYIDSKLPSQKLLQVSQQFQLIDFLINESKNYKNQ” are within 0.2 log units of each other in “soluble fraction (log2)” value: -0.398 for the first, -0.252 for the second.

Compared with “HMLKDININVTGLDQISNAKLINNLNLLKMNNLFFLDEKKIKKILNSNNLIEKFFIFKKYPSTLDIKVYKT”, “HMLKHNLLSELSRIEGVGAVKRKALMDKFGTVENIKRASEEELSEVAGIGPTLARTIKEQMNKDE” is lower in “soluble fraction (log2)” value: 0.22 for the first, -0.2 for the second.

First: HMLKKRKPMSGVGVIVKGMLTGTVTGTDGSYALKARPNDELSFSFLGYKTQEVFVGSKSTIDITLVDEA
Second: HMLKLEEIQPNATVRGILPDALITVVNVKWFGSEALELTYKDTSGRVANQLLFRDDQPRLEIVE
The “soluble fraction (log2)” value of the first is higher: -0.0294 for the first, -1.12 for the second.

“HMLKLEPYTINEINSLQELYDLGNVRALETLISIYKDKNQVYDTRFYVLDILSKYDNPLIQEALEESITN” and “HMLKLPVEYLNLKYQLMHATSLDKPNNLMKLDEKLGKIIDVYYDDLPVDEQRVVDILQSKLYSY” are within 0.2 log units of each other in “soluble fraction (log2)” value: -1.89 for the first, -1.72 for the second.

First: HMLKLYILTDGKNYVMDDPIHPGRVMYSTSPVNAKKFTFKQARALLNNKSKKLSWIRSFNMVDDSSGEKI
Second: HMLKREDEVIVVAGKDKGKRGTITQLVGDDRVIVAGVNMVKRHTKPNPNLGQPGGIVEREASLHISNV
The “soluble fraction (log2)” value of the first is higher: 0.417 for the first, -0.162 for the second.

Going from “HMLKVHPRDQEENRLLLLKGERLYEESTGDTRVMIDMWLRKFEEALNSRSRENIEDARRELKEQLAELDN” to “HMLLAPLRLGAAPDIKAQAPLATILARHNGEMEAKDLWQRFGGEIDAFYLQLKTEVAHGWIVEPEPA”, the “soluble fraction (log2)” value rises from -0.312 to 0.0787.

Compared with “HMLLELINLQVKILENEELKIIGKVIDLENEKNNLLVIELLKDQKKVLVPFVKEIVPLIDIKNNFIMINPP”, “HMLLFNVADIVKRAKRVLNFKTDAELAAYLGVSRPTLSNWIARNGIDFPLLLEKLKEIDYNWLLVGKGKPE” is higher in “soluble fraction (log2)” value: -0.703 for the first, -0.114 for the second.

“HMLLGPDALTNRELDVLALLERRLSNKEIGALLYISPRTVKRHTINIYQKLHVNNRRAAVAQAKALGLMPD” and “HMLLKIRPDLDGNEIMKLLNIAAGPNVGKAYEHLLELRLEHGPLGKERAEQELMNWWSARSQ” are within 0.2 log units of each other in “soluble fraction (log2)” value: -0.489 for the first, -0.371 for the second.

Going from “HMLLNSLIDTLAAEKATVVPGTEVFKLYDTYGFPWELTEEIASERGFTIDHEGFEAAMKEQRERAREARV” to “HMLLNTSQLKELYNRYDKKNSSLISIPFSAISDEPLKFYKWYAALFQIELNVKAFADVDSKQIIIYKGTK”, the “soluble fraction (log2)” value falls from 0.0336 to -0.175.

Compared with “HMLLRSEDAIELGKSQLEDALAPYKIETLDTGTVQQLLDSLKLNSLESLYQEIGLGNRMSTIIAHRLLGE”, “HMLLSFYGTYGNVKLTGKELEDLQKEFPFDYQARIDRLSAYMESSGRKYHSHFATIRSWAQDDAKKN” is higher in “soluble fraction (log2)” value: -0.88 for the first, 0.173 for the second.

“HMLLSYDIAEYIEKYIHEHGLQPGDRLPTERELAAQLDITRVSVRQGYKRLLDQGVIRSENGYYVNPPR” and “HMLLTDGLERRIDGDKNLHIRISLPMLVKGQIKLAKSGNNESTVKGIFKIESYPGSHPRDVVTEIIEG” are within 0.2 log units of each other in “soluble fraction (log2)” value: 0.0914 for the first, -0.0816 for the second.

“HMLLTHPKRVFTYELIMELVWNEDYTFYSKKAVSNHMSNLRKKLKVTPDALDYIKNIVGVGYKFEA” and “HMLMKKTITHEIELLEFLKQIFPQSSTNKLRKMLSNGRIKINSEIVHKAKYKLQENDTFELLDNPT” are within 0.2 log units of each other in “soluble fraction (log2)” value: -0.0812 for the first, -0.0208 for the second.

Going from “HMLNEIMDTINKYISDKRNNKVAQNILSAALDELNSQIRVGLKDLNPHSIEEFKENVINSPYIEFEQG” to “HMLNEWIDYIDEHIKEELTAKNLATVFGYSERHFRNVFQIYYDIKLNDYIRRRKLYFAAQELKKG”, the “soluble fraction (log2)” value falls from -0.126 to -1.76.

First: HMLNMSVYDKQLLRAVENNPFISQRELARELHWNVDRVKYYMKKWKDKGGLRHVGSSHKGYWEVLVRIEEK
Second: HMLNNVDIHKLSEDLLLYKIKIDIKLKNIEDAISTIDYFSNKFPNSDLMPYVIYEKKLIDNI
The “soluble fraction (log2)” value of the first is higher: -0.0578 for the first, -0.741 for the second.

Going from “HMLNPLLLPFVEAEDFQVKLEILAAMEGKVGEEDLDILYEALDLPKMTGNIEEQIHSIKQYIEMRK” to “HMLNPVEKLLLLSQLYIGRLKGSFVVKEKHHKSTILGEVRELSPEEITLKTDEGYRLIRVDDILTIQL”, the “soluble fraction (log2)” value rises from -1.39 to -0.704.

First: HMLNSLDATQRLKLNKDGVVVFNFGKYVDQSVIDIFKKEKGYYNWMMSKDFSQQVKNIITKIYQEEIIG
Second: HMLNTLGADIRALRKARGLTLAELAQTLGRSVGWLSQVERDMSEPGINDLRDLARALDVSISSLFG
The “soluble fraction (log2)” value of the first is higher: -0.0228 for the first, -0.366 for the second.

“HMLNWINSDVLERFNSLTKEKQKAIVADTETRLNGLSQARFKVAKSSSNERLIAEFAIEINEAIMRAAAL” and “HMLPADETEARVLNVLGSEPLHVDEIRNQADLPIEKISATLAMMELKGMVRQVGGMNYVAMR” are within 0.2 log units of each other in “soluble fraction (log2)” value: -0.894 for the first, -0.892 for the second.

First: HMLPANGEAIYHYLASGAIKGVGPVTAQRIVDKFGEDTFDVLENNPLWLAEIKGITRKTAENIGAAFAAQF
Second: HMLPDAESFSYEVPYTKGDGGTYNYEGKIKAQNADAARDEIIRQAQVYFQMNPQFTPDYPSTTITSLD
The “soluble fraction (log2)” value of the first is lower: -0.263 for the first, 0.0666 for the second.

“HMLPDDDMLLNILTKLLIDKQFVINSHEIFDFIIKRANRSYEEMFILVNKLDQLSLEKKRQLTIPLIKEI” and “HMLPDLQESIDELLNIVDQRLNTSFEELVSGVNTTEKAIAFFLALLETIKWGFIKAEQTNNENKINIEKNY” are within 0.2 log units of each other in “soluble fraction (log2)” value: -1.22 for the first, -1.4 for the second.

Going from “HMLPDPIYEAFMMASDLGIVVRNGPQYAYPDKETGEVLYKALGREKFLQLMKDNDGLLTSIETEIRSM” to “HMLPKTVTLIDPVSGVAKTVTWVPALTLYSARRKAGLNRVPNTATIDRGGRELTGKRGSTLQPGDVVRW”, the “soluble fraction (log2)” value rises from -1.3 to ≥ 0.43.

With “HMLPPLGDQELELLRFITESAPITVREAAESYGKDRGLARTTVLTMMERLRAKGYLTRSESGAANEYSP” the “soluble fraction (log2)” value was -0.148.
